This data set can be described thus: label from the status in PepcDB records.

This passage reports protein production results from a protein production outcome set (Wang et al. 2014).

Consider “MRNTFIVCWQYLRAFALIYLCLLAGNAVSALLPFTIPGSIIGMLVLFTLLASQILPAQWVKPGCYLLIRHMALLFVPIGVGVMNYYDLVNQQFGPIVVSCLISTFIVMLVVGFSTQIMQRERATAGDRTPPKDNE”, for which the protein production entry was “failed”.
As for “MRPADRCRSPTGRPATGRHRPDIFTNTVEWDAFEAAPLYGDTTSSFVCQSRMTGEYFPKMGGHAMKNRLACTAVIAAIFCTTSASAQKLPEIWEVTKLVPGSAFHGVHGLGIDKAGHLFAGSVAGAMLYEVDIASGTAKVAIPAPIGMADDIAFAPDGTMAWTGFLAGDLYSRKGDGPIKKLASGLPGINSLAFRKDGRLYATTVFLGDTLYEIDVEGVKPPRQIMEKMGGLNGFEFGPDDKLYGPLWFKGQVAKVDVDKAELTVVADGFKVPAAVNFDSKGNLWVVDTALGQLVRVDPKSGAKTMVAQLKPSLDNLAIDEKDRIYVSNMADNGIQEVDPASGQAKQIIIGKLALPGGIGVTSENGKDTIHVADVFAYRTVDGTTGEVTEKARMHAAGVTLEYPMSATAKGNDVILSSWFTGTVQVIDNKTGATRDMLHDFKAPHDAIVLEDGSILVAELGTKSLVRVSGEHGKDRTTLIGDLEGPVGLVAGSRGEVYVTEAFAGVVSKIEQNGEKTVLVKELKMPEGLARTSDGKLIVAEVGARRLIEITPEDGKITEIAADLPIGLAGAPGGLPTHIPTGVAIGATGVIYFSSDIENAIYKAVKK”, the protein production result was “failed”.
In the case of “MRPALTTVQVFALLAVALSTLVFAASFAVDTTSARPEPVAFDNTVQRGVTAADEQIARNRSISIPRAQVFYSQYRYVVGYVGIGQAVTALTEPGHEQQFGYPLAVYVSDYSDRPVRCGDDGSLRTATPPDWVEANQAHYVVDGSARVPSGPAVVPFADRDDAAAFTETCGGQIIDWETLKTYSFDLKQAAAVREQVGPRRSGADATVQAARQHRNRPVSVEVGTDAPTVQAAVDAAPPNTTVVVPAGTYNEQVMIDKPLSLSGPGATLDGGGNGTVVTVTADRVGVTGFEITGIGNTTVGDPTQSNDSAWDATVTTAYGNSDAAVTGRNASGLYVANITVETPASGVVLRRTPGAVVENVTVNGTADWQDGFMGVIGMHRPIVVQDSVFNGGRDGVYLHRADGTAVRNNAFRDNRFGVHLMYTSRSLVADNVARGQEYAGVVVMTNPVANAIVGNDVRHSGSGIMLAGSRSYIAHNVVVDTTQAMSTNADRSLYEHNVLYGNDIGVRASTVVPSNIVTDNDFIANDRHAISGPGPLRVYTHDGRGNYWSGAYDLTGGTGPVLAQSYSPTDSVDRRLHQTDAAVVLRAAPSVRGLRALRGTTPGFRRGSIVDRAPLADPANPETVRRLRNETSMEGAA” it was “failed”; in that of “MRPGQELAGPGLRQPRTGVPRRRHRRLPRRHRPAIVSLPPSYGPSMPDAHPPPSPSKDRSFAARVQTGALVIIAFAVVLALLVQAQFILISLAVSVILFSLTSDAIALVARVRFGPVKIPNWLASSLALLLLAIVLLSLAAVIVSQVNTVLLTALSYSEQAPAAVAAIFSWLGKDAEEAVLSSLRAVEISGYLRTLAAQAGTLMQATVLVILFVGFLFAERVWFPVKLLNLFGNPDRARRVEEIVSSIMHRVNRYLLVKTLVSAITGLLVWGVAMAFGLDLAAPLGMLTFILNFIPSLGSIVATLLIVLVTFVQTVDVSTALSVLALVGVIQFICGNILDPMLMGRALQLSSFGIIISLAFWGAIWGIPGMFLSVPIMVGLMIVCAETEALRPIAVLLSREGLAAPMHPERPAAPPRAEPETETVASRRVGL”, “failed”; in that of “MRPRRWFAILVCLCCLVTAAWPAEVKGENKKKERLAVVTVDRVNVRQGPGVPYRPLANVHRGETYRLIDIKDGWLKIEWKKNKIGWIAASYAAPVREMEIVQEDRLRLRQEPGLDGRIIGHLAQGDQVIVIKEKGEWKQIVTKKAVGWVAASYLADAESPTGSRQTGVVTADSLNVRVAPSLDAERIGRLLHGERVEIVETKRDWYKIVTRSGLGGWVAAEYIEMKNGQAVGNPEEAVAESASPAAVDLVTIQGNGPRQYVKKWTRTPVQVLAGKTIVLDAGHGGKDGGAESVNGVTEKTLTMETAERLKEKLETYGARVVLTRVNDDYVPLSARVATARLYQADAFISLHYDSAEDEDASGITAYYYDRFADYGLAQSFQGPFSKLSALPFRGLAFGNYYVLRENERPSVLLELGYLSNRSDAEVVATDSYQETVTTAIVNAVRHYFQ”, “failed”.
Turning to “MRPVGSKYLLEEPLGRGATGTVWRARQRETAGAEAAVAGQPGETVAIKVLKEELASDADIVMRFLRERSVLLRLTHPNIVRVRDLVVEGELLALVMDLIDGPDLHRYLRENGPLTPVAAALLTAQIADALAASHADGVVHRDLKPANVLLKQTGGEMHPMLTDFGIARLADSPGLTRTHEFVGTPAYVAPESAEGRPQTSAVDVYGAGILLYELVTGRPPFGGGSALEVLHQHLSAEPRRPSTVPDPLWTVIERCLRKNPDDRPSAENLARGLRVVAEGIGVHANSAQIGAAENVGALLAPDPAPAQVPGAPDAAYDPNGATSVLPHTSGPAGAADPTAVLPSTGAPDPTAVMPPVPPGQPGAPGQGGPEDPHPWQNQLRAARDRNEQTQVQYLDPNQDPLRRRPQRQVSRPPQQPRQAPQGPPPQQPGYGYPQQQQPQRYATPQPQQPQRYAPPPAPEPQQPRREPRPPRQRSANPMRIPGLGCLKGCLVTVVVLFVAGWLVWELSPLQEWIGTGKGYWDQLTDWFTTVTDWIGDLGGSGGG”, the protein production result is given as “failed”.
With “MRQFPPASSTVISVNFEELQAFVGRNPMLSLALVGLTIAIIVTEIARLFRGYRALKPAELTRLINSENALVIDLSPTADFEKGHIAGSRNVALAKFDPAGKLLANAKSSPVVVVCRSGNASAGAAKTLKKAGFEQVYWLEGGIAAWQMAELPLVKGRA”, the protein production entry is on record as “failed”.
In the case of “MRQHGKVSEVTEKKTAVYVDDQQRILIRQLARSWLWRSELPTWLLIVTVYGGWFACVAGWRTLGLFPATLLLIWFTAWYMSLQHELIHGHPTRLAWFNQLLGTLPLAVWYPYGVYRDSHLAHHRNHLLTHPEDDPESYYVTAESWQRFSAWQRRLIHLRNTFWGRLLLAPMMDIIHTLNSALRAFREGDRRAIAMWSLHLLLLTGLLTWMAAQGFSPLWFVLAVSYPALALTKVRSFLEHRAADDPLARSVINEAGLPWRVLFLNLNYHAVHHDLPGVPWYALRQLYLHRQAAYLQRNQGFLVRGYGEWRRHFSRRAVAVNAHPGFGEQAQAGGEHG” it was “failed”; in that of “MRQKELETADWQRNLKIAWIGTFFTGASFSIVMPFMALYVEELGVKGAMVEWYAGLSVALSALASALVSPVWGHLADRYGRKPMMIRASMVMTFTMGGLAFVPNVFWMLFLRILNGLFAGYVPNATALIASQAPQQRSGYALGTLSTGLTAGVLIGPLLGGAISEAFGMRGTFLLVGLILFICCLLTIFGLREDFQLIEKVEIMSFSQVFAKIPSKSLLIGLFVTSMIIQISAQSIAPILALYIRYLGQSDNILFYSGLIVSAMGFSSLLSTPYLGRLGDRIGNHRLLLMGLFYSFLLYFLCGFAGSALQLGLLRFAYGFGVGALTPSVNSLLTKMTPKEGISRIFSLNQSFSYIGQVLGPFVGSAVATGLGYRWVFFVTAAIVFGNFVCSLIIFRKSLGVKNIGES”, “failed”.
In the case of “MRQPPILSEALRLFFPLAALHGAVWPFLWIVIGGYALPFANAVPPSQWHAHEMIFGTYGMALAGFLGSAVPEWTDTKAAAGRTLLCLAGLWLPGRLIGFVGADTWSLLAGFFDLAFLLALSVLIGKAMLVRRTTKHLAFLVWLILFAAAETGVRYAWWMGDLEFAVRCLEAALCIFIVLFSLSAARINVVVINLALDPSGETTPYRPHPGRQHMAGAMVTLYMAAKLLFPESDVCAWLALAAGAAFFDRLAEWFIGRAVFRTEVLLLALGNAFAGAGFLALGATRLGFSVTSAAGLHLLSVGALGCAIMAVFIIAGLRHTGRDLKHLPWQAHAAAALMVMAGLTRILPEFDVAAVLSPYHHGLSAILWAASFGIWLQGFLPFMRAPGTDEAGACG” it was “failed”; in that of “MRQRKDMPHNRLQTGGMTDEPTDIKAEAKPARTSDLRGFIRLLEERGQLRRIRQPVSLVHEITEIHRRVLADGGPALLFEQPVDHEGKVRKMPLLANLFGTRQRIEWGLGLETGGLPALGQKLTELREPRPPKSMAEAWSKLPLLRAALSMRQRNVSRAPVQEKVLTRDAVDLARLPVQWCWPGEPAPLITWPLVITRSPDDPDDINVGIYRMQVLGPDRVIMRWLAHRGGAHHHRLWQARGLDMPVTVAIGADPATILAAVMPLPDHISELGFSGLLRGAKSRIAKALTVPMPVPANAEIVLEGTVSATETAMEGPYGDHTGYYNSVEAFPVMTLSAITMRRDPIYLSTYTGRPPDEPSVLGEAMLEIFLPLVKRQFAEIVDLWMPPEACSYRVMVASIDKRYPGQAKRVMMGLWSMLPQFSYVKLIILVDPDIDVRSWTDVVWALSTRFDASRDTTIINDTPIDYLDFASPKAGLGGKMGLDATRKLPPETEREWGRVLSMTPDVVAKVDLVWRDLGLGERPLEHHHHHH”, “failed”; in that of “MRRCCGDLAASRGGCEPASRNLTRTRLTFAALGRINRPAEHDREDAMTRQEARDHEPRDQDAALSRRTLVRGLALGAAATMAGPALAQTGPAAPPTTITTPPRDFGPNGAPTTYFWDPDIIAVDPSFDDLAQPNTAIKRLYTGVLWAEGPAWSAQGRYLLWSDIPNNRQMRWSEDDGRISVFRSPSNNSNGNSFDFQGRQLSCEHLTRRVTRYEHDGTATVLCDNYNGKKLNSPNDVVAHPDGSYWFTDPPYGGQLYEGEPDAAGGPSNSGGKLNPRIGQPAGFTPGKRELPTNCYRIDPSGRVDLVVTEEQVPDPNGLCFSPDFKKLYVVSTGKGPGDSGPGGKGEIFVFDVGADNKLSNQKRFSDCTIDGVKCGPDGVRCDVNGNVWASSNAGRAVGYSGVTVWSPEGKLLGRIRLPEVCGNICFGGPKRNRLFMAASQSLYAVFTATQGAGPG”, “failed”.
In the case of “MRRGSGNPERPSLSRDGLRVPPPCPGKRGPGHFSGYHGGMEGIRRAAQRAAEEFLQAFPMAPGSLFVLGGSTSEVLGERVGTRPSLEAAHAVLEGLLPPLLERGVHVAVQACEHLNRALVVERETARAFGLEEVAVFPHPKAGGALATAAFLRFRDPVMVESLKAQAHGGMDIGGVLIGMHLRPVAVPLRLSVRKIGEAVLLAAKTRPKLVGGARAVYTREEMLKKLEEFLPKPP” it was “not failed”; in that of “MRRLNRKNNEALKKLNDRQRKVLYCIVREYIENKKPVSSQRVLEVSNIEFSSATIRNDMKKLEYLGYIYQPHTSAGRIPTDKGLRFYYEEMLKISKETSEADLAVETFKSMPLADPEKVLFLAGNLLARLTEGYVLIERPNTRDLKILRVMLIPVSEDYLIFSILTEFGVSKVTPIKTQERLNWEEIERQLNFLLRGRTVGEVLMGKIESLKGSGFLRLIESLIGETVERYLDAGLENLLKDETLTLEDIRNLLEEVKDQKFLESLVGEGITVRIGREIGRKKLEKFAVFSGKYFKGESPIGSVYLFTSKVTKYDRNHRVFEYILNRLSEYFTSTSRR”, “not failed”; in that of “MRRSAYMTDTKICKKGCDHDTSHRENEQRCGRGSFWMHDPDLIFSELKLKAGEFFLDMGCGPGDYSIWASKIVGNSGMVYALDKWQELIDNLTEKADLEGIKNIKGMVSDIARPLPIEESCIDVYFISTVLHSLDLAKDSDVIFSEIHRVLKPDGRLAIVECKKEEMSFGPPLHMRLSPEELENLIAKYGFEKINLVDLGYNYMIQFRKSYQK”, “failed”.
Consider “MRRSGAASRPASRGARTAYIGAMSRSTPPATTRIVCIRHGESTFNAHHEATGRDPGHIDARLSERGHAQVAAARAALRAIPFELVVTSPLTRALQTTAGIFSDHPARPDVLVEVLHRECQESSCDIGRAASVLAQEFPAFKVGHLPETWWYADGEAGPDGWHVEPRTLFDQRVSGFRDWLRARPERTIGVVGHCTFFYHLTGRWLANCEALDVDLTAEPRPRAYG”, for which the protein production result is “failed”.
